Substrate: O=c1[nH]c(=O)n([C@H]2C[C@H](O)[C@@H](COP(=O)(O)O)O2)cc1/C=C/Br
Test: Enzyme kinetics of rHuTS with dUMP and BVdUMP
Assay type: biochemical, human
Conditions: other: rHuTS; 37.0 °C
Experimental: L. Enzyme Preparation. Cloned human thymidylate synthase plasmid pBCHTS was subcloned into E. coli. BL21 (DE3)/pET-28a(+) (Novagen) using the NdeI ñSacI insertion site, in order to add an amino terminal His tag. […] M. Enzyme Assays and Kinetic Measurements. […] Tetrahydrofolate stock solutions were prepared by dissolving tetrahydrofolic acid (Sigma) directly into 0.2 M Tris pH 7.5, 0.5 M-mercaptoethanol; stock solutions were stored at -80° C. […] N5, N10-methylene tetrahydrofolate was kept on ice and used within 2 hours of preparation. […] The catalytic efficiency of the enzyme (Kcat/Km) was calculated from the kinetic constants Km and Vmax.

B1: recombinant human thymidylate synthase (rHuTS) (Homo sapiens) (protein)
chain: MPVAGSELPRRPLPPAAQERDAEPRPPHGELQYLGQIQHILRCGVRKDDRTGTGTLSVFGMQARYSLRDEFPLLTTKRVFWKGVLEELLWFIKGSTNAKELSSKGVKIWDANGSRDFLDSLGFSTREEGDLGPVYGFQWRHFGAEYRDMESDYSGQGVDQLQRVIDTIKTNPDDRRIIMCAWNPRDLPLMALPPCHALCQFYVVNSELSCQLYQRSGDMGLGVPFNIASYALLTYMIAHITGLKPGDFIHTLGDAHIYLNHIEPLKIQLQREPRPFPKLRILRKVEKIDDFKAEDFQIEGYNPHPTIKMEMAV
notes: His tag (N); made in house; host or cells: E. coli BL21 (DE3), pET-28a(+)
Km: 16 μM μM
